Columns and labels:
[1] = target: PKA regulatory subunit IIβ, FLAG-tagged (RIIβ-FLAG) (human) (UniProt P31323); assay: co-IP
golgin A3 = golgin A3 (UniProt Q08378); assay: anti-FLAG co-IP, golgin A3 Western blot; details: reference: Cα L206R, vehicle; sites S114

Sequence of UniProt P31323 (P31323 whole entry): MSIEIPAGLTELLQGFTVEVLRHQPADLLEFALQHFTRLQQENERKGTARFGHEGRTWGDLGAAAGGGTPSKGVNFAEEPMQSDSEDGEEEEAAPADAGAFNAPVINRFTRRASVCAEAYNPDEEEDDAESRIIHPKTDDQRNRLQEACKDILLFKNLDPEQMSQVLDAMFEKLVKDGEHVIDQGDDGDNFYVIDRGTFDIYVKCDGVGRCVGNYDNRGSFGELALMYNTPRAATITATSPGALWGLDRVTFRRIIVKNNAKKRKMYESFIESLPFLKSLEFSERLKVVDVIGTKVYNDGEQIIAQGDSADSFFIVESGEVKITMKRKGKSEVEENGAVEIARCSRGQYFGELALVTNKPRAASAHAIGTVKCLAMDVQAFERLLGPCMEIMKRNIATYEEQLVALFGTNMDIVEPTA

| densitometry of golgin A3 co-precipitated with RIIβ-FLAG (WB) [1] | other: densitometry, relative units (golgin A3) | Substance |
| --- | --- | --- |
| 1.8 |  | golgin A3 (from UniProt Q08378 1-1498) (natural protein) |
|  | lost; reference 1.8 ± 0.2 | RIIβ (PKA regulatory subunit IIβ) (from UniProt P31323) Cα L206R, 8-Br-cAMP |

Source: publication PMC7895437
